Test results taken from patent US12565520B2, “Chemically-stabilized allosteric modulators of leucine-rich repeat kinase 2 (LRRK2)” (UNIVERSITY OF GEORGIA RESEARCH FOUNDATION, INC., priority 2020, dated 2026).
Entries after “also recorded” stand apart in the source; their conditions may differ.

Tests used:
GFP-tagged LRRK2 [1] = biological target: T1, GFP-tagged LRRK2 (Homo sapiens, UniProt Q5S007); assay: Pulldown of LRRK2 from cell lysate with biotin-labeled peptides; format: binding; settings: 10 μM biotin-labeled peptide, lysate of HEK293 cells overexpressing GFP-tagged LRRK2
T1 construct: co-transfecting HEK293 cells with GFP-tagged and strep-tagged full-length LRRK2; expressed in transfected cells; host or cells: HEK293
T1 sequence (Q5S007 whole entry): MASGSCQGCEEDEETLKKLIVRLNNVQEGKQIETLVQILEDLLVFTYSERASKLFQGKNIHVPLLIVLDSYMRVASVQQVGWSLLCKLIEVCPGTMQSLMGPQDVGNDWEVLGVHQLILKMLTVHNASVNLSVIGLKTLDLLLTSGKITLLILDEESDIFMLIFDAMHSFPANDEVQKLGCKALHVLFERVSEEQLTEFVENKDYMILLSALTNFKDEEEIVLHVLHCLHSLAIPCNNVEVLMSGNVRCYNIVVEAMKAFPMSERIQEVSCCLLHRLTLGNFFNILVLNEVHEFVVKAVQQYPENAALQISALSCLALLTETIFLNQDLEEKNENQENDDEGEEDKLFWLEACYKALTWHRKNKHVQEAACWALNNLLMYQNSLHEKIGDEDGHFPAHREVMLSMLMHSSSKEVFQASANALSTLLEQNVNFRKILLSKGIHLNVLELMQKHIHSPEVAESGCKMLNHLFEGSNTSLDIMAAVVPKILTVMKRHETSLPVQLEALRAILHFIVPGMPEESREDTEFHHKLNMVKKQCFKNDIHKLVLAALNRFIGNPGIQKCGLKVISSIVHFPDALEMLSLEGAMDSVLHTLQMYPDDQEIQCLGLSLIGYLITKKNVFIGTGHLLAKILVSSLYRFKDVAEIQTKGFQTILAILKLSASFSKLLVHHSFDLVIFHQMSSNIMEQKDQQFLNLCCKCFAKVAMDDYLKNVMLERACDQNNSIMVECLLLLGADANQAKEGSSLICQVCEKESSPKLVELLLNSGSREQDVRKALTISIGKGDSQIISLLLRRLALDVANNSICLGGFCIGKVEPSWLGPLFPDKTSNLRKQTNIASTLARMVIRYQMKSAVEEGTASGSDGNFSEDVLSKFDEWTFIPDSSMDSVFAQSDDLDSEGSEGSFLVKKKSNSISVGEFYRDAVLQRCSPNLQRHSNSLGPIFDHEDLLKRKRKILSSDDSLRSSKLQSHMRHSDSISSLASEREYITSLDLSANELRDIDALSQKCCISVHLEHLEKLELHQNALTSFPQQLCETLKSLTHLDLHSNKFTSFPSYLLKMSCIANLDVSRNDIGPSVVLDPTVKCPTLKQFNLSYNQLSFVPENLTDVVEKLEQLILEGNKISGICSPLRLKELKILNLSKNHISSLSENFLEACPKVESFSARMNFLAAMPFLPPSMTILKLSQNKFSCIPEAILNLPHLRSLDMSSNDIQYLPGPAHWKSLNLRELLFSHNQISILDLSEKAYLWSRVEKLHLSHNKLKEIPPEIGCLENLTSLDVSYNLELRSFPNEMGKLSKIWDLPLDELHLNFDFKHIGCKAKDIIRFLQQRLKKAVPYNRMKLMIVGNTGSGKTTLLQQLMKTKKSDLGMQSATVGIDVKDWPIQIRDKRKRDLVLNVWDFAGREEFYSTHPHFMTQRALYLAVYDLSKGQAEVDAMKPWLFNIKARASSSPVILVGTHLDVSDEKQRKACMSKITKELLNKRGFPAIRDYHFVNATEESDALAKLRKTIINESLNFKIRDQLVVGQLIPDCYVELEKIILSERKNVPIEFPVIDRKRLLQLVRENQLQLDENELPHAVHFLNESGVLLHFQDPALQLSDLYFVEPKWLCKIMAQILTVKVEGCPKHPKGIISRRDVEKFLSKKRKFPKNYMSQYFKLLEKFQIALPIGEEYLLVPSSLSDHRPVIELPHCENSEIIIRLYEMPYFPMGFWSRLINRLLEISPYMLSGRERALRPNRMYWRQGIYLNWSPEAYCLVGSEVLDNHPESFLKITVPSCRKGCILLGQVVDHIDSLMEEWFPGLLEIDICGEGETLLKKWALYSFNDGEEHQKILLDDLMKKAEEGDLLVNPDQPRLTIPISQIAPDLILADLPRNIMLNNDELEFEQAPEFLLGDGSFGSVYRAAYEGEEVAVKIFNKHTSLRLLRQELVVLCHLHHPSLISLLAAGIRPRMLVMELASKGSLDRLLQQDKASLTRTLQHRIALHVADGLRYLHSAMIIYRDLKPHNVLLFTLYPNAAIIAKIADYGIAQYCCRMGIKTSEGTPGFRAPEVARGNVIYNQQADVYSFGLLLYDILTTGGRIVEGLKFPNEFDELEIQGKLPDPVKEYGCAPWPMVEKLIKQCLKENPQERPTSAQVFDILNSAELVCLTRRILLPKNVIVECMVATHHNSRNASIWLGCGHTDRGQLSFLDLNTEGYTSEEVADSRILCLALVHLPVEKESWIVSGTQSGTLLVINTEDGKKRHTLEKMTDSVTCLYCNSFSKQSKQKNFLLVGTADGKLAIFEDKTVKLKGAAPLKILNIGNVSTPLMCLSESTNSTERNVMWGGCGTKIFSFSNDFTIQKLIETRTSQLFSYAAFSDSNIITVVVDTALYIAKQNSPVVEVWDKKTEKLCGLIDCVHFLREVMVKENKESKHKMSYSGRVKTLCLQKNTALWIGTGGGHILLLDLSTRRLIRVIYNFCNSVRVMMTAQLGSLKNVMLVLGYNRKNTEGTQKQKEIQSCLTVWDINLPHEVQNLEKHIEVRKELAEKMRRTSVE
Experimental: Pulldown experiments. Fresh lysate of HEK293 cells overexpressing GFP-tagged LRRK2 was mixed and incubated with biotin-labeled peptide (added to a final concentration of 10 μM) and incubated at 4° C. overnight. The mixture was then applied to Magnetic Strep-beads (MagStrep ‘Type3’ XT Beads (IBA, Gottingen, Germany)) and the immune complex was washed twice (10 mM Tris/HCl pH 7.5, 150 mM NaCl) and subjected to immunoblot analysis. Samples were separated on 6% Tris-Glycine gels, transferred onto a nitrocellulose membrane (GE Lifesciences), and processed for western analysis. Membranes were blocked in 5% dry milk in Tris-buffered saline plus Tween-20 for 1 hour and probed with rat monoclonal anti-LRRK2 (clone 24D8 1:1000, Gloeckner lab(69)) and incubated overnight at 4° C. with gentle shaking. Membranes were then washed three times for 10 min at room temperature in PBS containing 0.1% or 0.05% Tween-20 and then incubated for 1 hour with anti-rat IgG-HRP (sc-2750, Santa Cruz Biotechnology). Membranes were again washed three times for 10 min at room temperature in PBS containing 0.1% or 0.05 Tween-20. The membranes were coated with enhanced chemiluminescent (ECL) reagent (WesternSure PREMIUM, Li-COR biosciences), and proteins were detected using the C-Digit Imaging System (Li-COR Biosciences). […]

GFP-tagged LRRK2 [2] = biological target: T1, GFP-tagged LRRK2; assay: Localization of GFP-tagged LRRK2 by confocal microscopy; format: cell-based; settings: HEK293 cells, 10 μM peptide, 12 h
Source text: Next, we analyzed the effects of these inhibitor peptides on LRRK2 localization.

[3] = system: LRRK2 (R1441G) kinase activity as Rab10 phosphorylation; assay: Rab10 pT73 phosphorylation immunoblot, HEK293T with LRRK2 R1441G and Rab29; format: cell-based; settings: LRRK2 R1441G + Rab29, 10 μM peptide, 12 h / 15 hours
Experimental: Rab10 Immunoblotting. HEK293T cells were co-transfected at a confluency of 50-60% with Strep-FLAG tagged LRRK2 R1441G and Rab29 as well as Rab10 (both HA-FLAG tagged) using polyethylenimine (PEI, Polyscience) as previously described(46). […] […], cells were lysed in twice, first in lysis buffer (30 mM Tris-HCL (pH7.4), 150 mM NaCl, 0.5% NP-40, complete protease Inhibitor cocktail and phosphatase inhibitor cocktail II & III (Sigma Aldrich) and again after centrifugation in 1% SDS. Cleared lysates were adjusted to 2 μg/μl with 5× Laemmli Buffer and lysis buffer. Samples were used for denaturating electrophoresis using 10% Bis-Tris gels (NuPAGE) and for western blotting onto PVDF membranes. Membranes were blocked with 5% non-fat dry milk dissolved in TBS-T (30 mM Tris-HCL (pH 7.4), 0.1% Tween 20) and separated horizontally at 140 kDa. Primary antibodies were added TBS-T with 5% BSA (pT73 Rab10) 1:2,000 (ab230261) and pS1292 LRRK2 1:2,000 (ab203181)) or total protein antibodies (Rab10(ERP13424) 1:5,000 (ab181367) or LRRK2 (clone 24D8) 1:5,000 (Gloeckner lab)), respectively. Membranes were incubated with HRP-conjugated secondary antibodies diluted in TBS-T with 5% milk prior to imaging using ECL Plus (Pierce) with exposure to photometric films (Hyperfilms, GE Healthcare). […]

Experimental for HEK293 cells: Flow Cytometry. HEK293 cells were plated in 96-well plates (50 000/well) and allowed to grow 24 h in complete growth medium (DMEM supplemented with 10% fetal bovine serum, L-glutamine). DMEM was carefully aspirated and cells were treated with fresh pre-warmed complete growth medium supplemented with 10 μM of peptide or DMSO. After 6 hours, cells were analyzed on Beckman Cytoflex flow cytometer (Beckman Coulter). Using forward and side scattered light, a gate for intact, non-aggregated cells was defined and the fluorescence of 10,000 events was collected within this cell gate. The fluorescent channel for FITC (488-nm excitation [ex], 525-nm emission [em]) was used. Data was analyzed using FlowJo software and the reported fluorescent intensity values represent arithmetic means of the results determined for the analyzed cells.

Substance	LRRK2 pulled down by biotin-labeled peptide (immunoblot) (GFP-tagged LRRK2 [1])	LRRK2 localization after peptide treatment (GFP-tagged LRRK2 [2])	dose dependence of cell uptake by flow cytometry (HEK293 cells)	Rab10 phosphorylation (pT73) [3]
COR-domain stapled peptide formed from SEQ ID NO. 16 KGEGEXLLKXWK, X = (S)-2-(4′-pentenyl)alanine; PEG3 linker, FAM or biotin label (hydrocarbon staple; PEG3 linker; FAM or biotin; COR domain peptide; (6)..(6) Xaa is (S)-2-(4′-pentenyl)alanine; (10)..(10) Xaa is (S)-2-(4′-pentenyl)alanine) [LCIP1]	successfully bound to LRRK2; also recorded: both peptides bound LRRK2	LRRK2 maintained its cytoplasmic distribution; also recorded: did not induce mislocalization of LRRK2	dose-dependent uptake	reduced Rab10 phosphorylation
Roc-domain stapled peptide formed from SEQ ID NO. 6 DEKQRKAC(Nle)SKITKEXLNKX, X = (S)-2-(4′-pentenyl)alanine; PEG3 linker, FAM or biotin label (DEKQRKACXSKITKEXLNKX; hydrocarbon staple; Nle; PEG3 linker; FAM or biotin; ROC domain petide; (9)..(9) Xaa is norleucine; (16)..(16) Xaa is (S)-2-(4′-pentenyl)alanine; (20)..(20) Xaa is (S)-2-(4′-pentenyl)alanine) [LRIP4]	successfully bound to LRRK2; also recorded: pulled down considerably more LRRK2 as compared to LCIP1; also recorded: both peptides bound LRRK2	LRRK2 maintained its cytoplasmic distribution; also recorded: did not induce mislocalization of LRRK2	dose-dependent uptake	reduced Rab10 phosphorylation with LRIP4 inducing a more pronounced effect; also recorded: reduced after treatment with LRIP4 or LCIP1, with LRIP4 having a larger inhibitory effect
